Measured values taken from patent US20030148958A1 (PROCTER AND GAMBLE, published 2003).
Ends that are not written are not given here.

Tests used:
[1] = target: corticotropin releasing factor 1 receptor; experiment: cell-based or functional assay
[2] = target: T1, corticotropin releasing factor 2 receptor; experiment: cell-based or functional assay
T1 sequence (Q13324 whole entry, species assumed, looked up): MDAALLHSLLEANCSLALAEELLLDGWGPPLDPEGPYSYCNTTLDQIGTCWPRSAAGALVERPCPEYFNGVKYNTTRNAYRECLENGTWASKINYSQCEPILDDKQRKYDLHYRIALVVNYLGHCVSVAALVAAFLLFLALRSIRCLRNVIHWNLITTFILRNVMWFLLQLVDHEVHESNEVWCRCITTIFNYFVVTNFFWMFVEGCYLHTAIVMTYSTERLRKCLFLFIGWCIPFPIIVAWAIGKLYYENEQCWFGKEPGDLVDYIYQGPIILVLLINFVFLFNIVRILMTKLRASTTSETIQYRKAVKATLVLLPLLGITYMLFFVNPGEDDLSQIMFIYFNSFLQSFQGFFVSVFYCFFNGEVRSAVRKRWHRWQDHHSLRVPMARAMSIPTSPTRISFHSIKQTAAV
For CRF1R Emax in this document: reference of the scale not given here.
For CRF2R Emax in this document: reference of the scale not given here.

Binder: IVLSLDVPIGLLQILLEQAKQRAAREQATTNARILARV-NH2 [SEQ ID NO 110]
- CRF1R EC50 [1]: > 100 nM
- CRF1R Emax [1]: 9%
- CRF2R EC50 [2]: 11 nM
- CRF2R Emax [2]: 100%

Binder: IVLSLDVPIGLLQILLEQERARAAREQATTNARILARV-NH2 [SEQ ID NO 119]
- CRF1R EC50 [1]: > 100 nM
- CRF1R Emax [1]: 3%
- CRF2R EC50 [2]: 3.57 nM
- CRF2R Emax [2]: 95%

Binder: IVLSLDVPIGLLQILLEQAKAEAAREQATTNARILARV-NH2 [SEQ ID NO 112]
- CRF1R EC50 [1]: > 100 nM
- CRF1R Emax [1]: 10%
- CRF2R EC50 [2]: 12.3 nM
- CRF2R Emax [2]: 100%

Binder: ZGPPISIDLPFQLLRKMIEIEKQEKEKQQATNNRLLLATV (C-terminal amide) [SEQ ID NO 12]
- CRF1R EC50 [1]: 928 nM
- CRF1R Emax [1]: 73%
- CRF2R EC50 [2]: 9.72 nM
- CRF2R Emax [2]: 91%

Binder: IVLSLDVPIGLLQILLEQARQRAAREQATTNARILARV-NH2 [SEQ ID NO 114]
- CRF1R EC50 [1]: > 100 nM
- CRF1R Emax [1]: 6%
- CRF2R EC50 [2]: 3.42 nM
- CRF2R Emax [2]: 100%

Binder: IVLSLDVPIGLLQILLEQTKADAAREQATTNARILARV-NH2 [SEQ ID NO 108]
- CRF1R EC50 [1]: > 100 nM
- CRF1R Emax [1]: 3%
- CRF2R EC50 [2]: 79 nM
- CRF2R Emax [2]: 97%

Binder: IVLSLDVPIGLLQILLEQEKQRAAREQATTNARILARV-NH2 [SEQ ID NO 115]
- CRF1R EC50 [1]: > 100 nM
- CRF1R Emax [1]: 7%
- CRF2R EC50 [2]: 13.6 nM
- CRF2R Emax [2]: 98%

Binder: IVLSLDVPIGLLQILLEQERQEAAREQATTNARILARV-NH2 [SEQ ID NO 118]
- CRF1R EC50 [1]: > 100 nM
- CRF1R Emax [1]: 5%
- CRF2R EC50 [2]: 14.6 nM
- CRF2R Emax [2]: 100%

Binder: IVLSLDVPIGLLQILLEQTKARAAREQATTNARILARV-NH2 [SEQ ID NO 117]
- CRF1R EC50 [1]: 100 nM
- CRF2R EC50 [2]: 9.41 nM

Binder: IVLSLDVPIGLLQILLEQERQRAAREQATTNARILARV-NH2 [SEQ ID NO 111]
- CRF1R EC50 [1]: > 100 nM
- CRF1R Emax [1]: 9%
- CRF2R EC50 [2]: 10.9 nM
- CRF2R Emax [2]: 99%

Binder: IVLSLDVPIGLLQILLEQAKARAAREQATTNARILARV-NH2 [SEQ ID NO 109]
- CRF1R EC50 [1]: 100 nM
- CRF2R EC50 [2]: 11.8 nM

Binder: IVLSLDVPIGLLQILLEQERAEAAREQATTNARILARV-NH2 [SEQ ID NO 113]
- CRF1R EC50 [1]: > 100 nM
- CRF1R Emax [1]: 4%
- CRF2R EC50 [2]: 11.3 nM
- CRF2R Emax [2]: 98%

Binder: IVLSLDVPIGLLQILLEQTKANAAREQATTVARILARV-NH2 [SEQ ID NO 116]
- CRF1R EC50 [1]: 100 nM
- CRF1R Emax [1]: 4.8%
- CRF2R EC50 [2]: 100 nM
- CRF2R Emax [2]: 26.4%
